Test results published in patent US20210388087A1 (Chugai, published 2021).
Substitutions are numbered along the chain they refer to. Names may count otherwise. Each block holds one binder with its values, some of them ahead of it.

Target: T1, Human CD3eg linker (human)
T1 construct: Single-chain construct; also called recombinant human CD3
T1 chain: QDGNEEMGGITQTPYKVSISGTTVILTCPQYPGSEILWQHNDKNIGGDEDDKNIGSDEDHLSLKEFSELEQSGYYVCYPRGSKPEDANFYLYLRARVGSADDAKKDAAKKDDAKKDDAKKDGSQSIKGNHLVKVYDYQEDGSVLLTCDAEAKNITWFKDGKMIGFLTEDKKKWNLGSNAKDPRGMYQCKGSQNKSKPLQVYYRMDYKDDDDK
Experiment: SPR; fold vs parent H183/L072

fold change of affinity: 0.8 fold
B6: H183/L072 VL Q27I (antibody, name in Kabat numbering, V domains shown)
VH: QVQLVESGGGLVQPGRSLRLSCAASGFTFSNAWMHWVRQAPGKGLEWVAQIKDKGNAYAAYYAPSVKGRFTISRDDSKNSIYLQMNSLKTEDTAVYYCHYVHYASASTVLPAFGVDAWGQGTTVTVSS
VL: DIVMTQSPLSLPVTPGEPASISCQASIELVHMNRNTYLHWYQQKPGQAPRLLIYKVSNRFPGVPDRFSGSGSGTDFTLKISRVEAEDVGVYYCAQGTSVPFTFGQGTKLEIK

fold change of affinity: 1 fold
B8: H183/L072 VL R54A (antibody, name in Kabat numbering, V domains shown)
VH: B6 VH
VL: B6 VL with I27Q, R59A

fold change of affinity: 0.7 fold
B10: H183/L072 VL R29Q (antibody, name in Kabat numbering, V domains shown)
VH: B6 VH
VL: B6 VL with I27Q, R34Q

fold change of affinity: 0.6 fold
B11: H183/L072 VL R29F (antibody, name in Kabat numbering, V domains shown)
VH: B6 VH
VL: B6 VL with I27Q, R34F

fold change of affinity: 0.9 fold
B13: H183/L072 VL Q27F (antibody, name in Kabat numbering, V domains shown)
VH: B6 VH
VL: B6 VL with I27F

fold change of affinity: 0.3 fold
B17: H183/L072 VL R29E (antibody, name in Kabat numbering, V domains shown)
VH: B6 VH
VL: B6 VL with I27Q, R34E

fold change of affinity: 0.8 fold
B21: H183/L072 VL Q27K (antibody, name in Kabat numbering, V domains shown)
VH: B6 VH
VL: B6 VL with I27K

fold change of affinity: 0.5 fold
B24: H183/L072 VL R29Y (antibody, name in Kabat numbering, V domains shown)
VH: B6 VH
VL: B6 VL with I27Q, R34Y

fold change of affinity: 0.4 fold
B26: H183/L072 VL Q90E (antibody, name in Kabat numbering, V domains shown)
VH: B6 VH
VL: B6 VL with I27Q, Q95E

fold change of affinity: 0 fold
B30: H183/L072 VL Q90K (antibody, name in Kabat numbering, V domains shown)
VH: B6 VH
VL: B6 VL with I27Q, Q95K

fold change of affinity: 0.2 fold
B31: H183/L072 VL R29I (antibody, name in Kabat numbering, V domains shown)
VH: B6 VH
VL: B6 VL with I27Q, R34I

fold change of affinity: 0.3 fold
B32: H183/L072 VL R29D (antibody, name in Kabat numbering, V domains shown)
VH: B6 VH
VL: B6 VL with I27Q, R34D

fold change of affinity: 1.2 fold
B37: H183/L072 VL Q27H (antibody, name in Kabat numbering, V domains shown)
VH: B6 VH
VL: B6 VL with I27H

fold change of affinity: 1 fold
B42: H183/L072 VL Q27N (antibody, name in Kabat numbering, V domains shown)
VH: B6 VH
VL: B6 VL with I27N

More lines, now with the values behind:

B1: H183/L072 VL Q27A (antibody, name in Kabat numbering, V domains shown)
VH: B6 VH
VL: B6 VL with I27A
fold change of affinity: 1.2 fold

B2: H183/L072 VL Q27Y (antibody, name in Kabat numbering, V domains shown)
VH: B6 VH
VL: B6 VL with I27Y
fold change of affinity: 0.9 fold

B3: H183/L072 VL R29G (antibody, name in Kabat numbering, V domains shown)
VH: B6 VH
VL: B6 VL with I27Q, R34G
fold change of affinity: 1.2 fold

B4: H183/L072 VL R54E (antibody, name in Kabat numbering, V domains shown)
VH: B6 VH
VL: B6 VL with I27Q, R59E
fold change of affinity: 0.8 fold

B5: H183/L072 VL Q90D (antibody, name in Kabat numbering, V domains shown)
VH: B6 VH
VL: B6 VL with I27Q, Q95D
fold change of affinity: 0 fold

B7: H183/L072 VL R54D (antibody, name in Kabat numbering, V domains shown)
VH: B6 VH
VL: B6 VL with I27Q, R59D
fold change of affinity: 0.5 fold

B9: H183/L072 VL R29L (antibody, name in Kabat numbering, V domains shown)
VH: B6 VH
VL: B6 VL with I27Q, R34L
fold change of affinity: 0.8 fold

B12: H183/L072 VL Q27D (antibody, name in Kabat numbering, V domains shown)
VH: B6 VH
VL: B6 VL with I27D
fold change of affinity: 1.1 fold

B14: H183/L072 VL R29N (antibody, name in Kabat numbering, V domains shown)
VH: B6 VH
VL: B6 VL with I27Q, R34N
fold change of affinity: 0.3 fold

B15: H183/L072 VL Q27R (antibody, name in Kabat numbering, V domains shown)
VH: B6 VH
VL: B6 VL with I27R
fold change of affinity: 1 fold

B16: H183/L072 VL Q90H (antibody, name in Kabat numbering, V domains shown)
VH: B6 VH
VL: B6 VL with I27Q, Q95H
fold change of affinity: 0.1 fold

B18: H183/L072 VL Q90T (antibody, name in Kabat numbering, V domains shown)
VH: B6 VH
VL: B6 VL with I27Q, Q95T
fold change of affinity: 0 fold

B19: H183/L072 VL R29S (antibody, name in Kabat numbering, V domains shown)
VH: B6 VH
VL: B6 VL with I27Q, R34S
fold change of affinity: 0.8 fold

B20: H183/L072 VL Q27V (antibody, name in Kabat numbering, V domains shown)
VH: B6 VH
VL: B6 VL with I27V
fold change of affinity: 0.9 fold

B22: H183/L072 VL Q90S (antibody, name in Kabat numbering, V domains shown)
VH: B6 VH
VL: B6 VL with I27Q, Q95S
fold change of affinity: 0 fold

B23: H183/L072 VL R54F (antibody, name in Kabat numbering, V domains shown)
VH: B6 VH
VL: B6 VL with I27Q, R59F
fold change of affinity: 1.5 fold

B25: H183/L072 VL Q27G (antibody, name in Kabat numbering, V domains shown)
VH: B6 VH
VL: B6 VL with I27G
fold change of affinity: 1 fold

B27: H183/L072 VL R29H (antibody, name in Kabat numbering, V domains shown)
VH: B6 VH
VL: B6 VL with I27Q, R34H
fold change of affinity: 0.8 fold

B28: H183/L072 VL Q27S (antibody, name in Kabat numbering, V domains shown)
VH: B6 VH
VL: B6 VL with I27S
fold change of affinity: 1.1 fold

B29: H183/L072 VL Q27W (antibody, name in Kabat numbering, V domains shown)
VH: B6 VH
VL: B6 VL with I27W
fold change of affinity: 0.7 fold

B33: H183/L072 VL R29V (antibody, name in Kabat numbering, V domains shown)
VH: B6 VH
VL: B6 VL with I27Q, R34V
fold change of affinity: 0.3 fold

B34: H183/L072 VL Q27E (antibody, name in Kabat numbering, V domains shown)
VH: B6 VH
VL: B6 VL with I27E
fold change of affinity: 1.1 fold

B35: H183/L072 VL R29W (antibody, name in Kabat numbering, V domains shown)
VH: B6 VH
VL: B6 VL with I27Q, R34W
fold change of affinity: 0.5 fold

B36: H183/L072 VL R29K (antibody, name in Kabat numbering, V domains shown)
VH: B6 VH
VL: B6 VL with I27Q, R34K
fold change of affinity: 1.1 fold

B38: H183/L072 VL Q27M (antibody, name in Kabat numbering, V domains shown)
VH: B6 VH
VL: B6 VL with I27M
fold change of affinity: 1.2 fold

B39: H183/L072 VL R29T (antibody, name in Kabat numbering, V domains shown)
VH: B6 VH
VL: B6 VL with I27Q, R34T
fold change of affinity: 0.8 fold

B40: H183/L072 VL R29A (antibody, name in Kabat numbering, V domains shown)
VH: B6 VH
VL: B6 VL with I27Q, R34A
fold change of affinity: 0.6 fold

B41: H183/L072 VL Q27L (antibody, name in Kabat numbering, V domains shown)
VH: B6 VH
VL: B6 VL with I27L
fold change of affinity: 1 fold

B43: H183/L072 VL R54G (antibody, name in Kabat numbering, V domains shown)
VH: B6 VH
VL: B6 VL with I27Q, R59G
fold change of affinity: 1.1 fold

B44: H183/L072 VL R29M (antibody, name in Kabat numbering, V domains shown)
VH: B6 VH
VL: B6 VL with I27Q, R34M
fold change of affinity: 0.7 fold

B45: H183/L072 VL Q27T (antibody, name in Kabat numbering, V domains shown)
VH: B6 VH
VL: B6 VL with I27T
fold change of affinity: 1 fold
